Test system: target antigen-expressing cell line
Test: Jurkat NFAT-GFP assay, coculture with target cell lines expressing the respective target antigen (summary Table 10A)
Format: cell-based, human
Design: key: The signs +/−, +, 2+ etc. after the name of the cell lines indicate the relative degree of positivity on the Jurkat-NFAT-GFP assay as measured by the % GFP positive cells; +: relative degree of positivity on the Jurkat-NFAT-GFP assay as measured by the % GFP positive cells; 2+: relative degree of positivity on the Jurkat-NFAT-GFP assay as measured by the % GFP positive cells
Settings: SIR-expressing Jurkat-NFAT-GFP cells cocultured with RAJI; relative % GFP positive cells
Outline: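 Readout is % GFP+ cells by FACS, graded +/− to 2+ relative to parental reporter cells. Jurkat-NFAT-GFP cells stably transduced with SIR constructs (puromycin-selected) were mixed with target-antigen-expressing cell lines at roughly 1:2 effector:target and cocultured ~4–18 h.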

Row | Molecule | NFAT-GFP ASSAY Positive Cell lines: RAJI
1 | 062717-P06 (protein) MALPVTALLLPLALLLHAARPLEGKPIPNPLLGLDSTGSGEDLKNVFPPEVAVFEPSKAEIAHTQKATLVCLATGFYPDHVELSWWVNGKEVHSGVCTDPQPLKEQPALNDSRYCLSSRLRVSATFWQNPRNHFRCQVQFYGLSENDEWTQDRAKPVTQIVSAEAWGRADCGITSASYHQGVLSATILYEILLGKATLYAVLVSALVLMAMVKRKDSRGRAKRSGSGATNFSLLKQAGDVEENPGPTSMALPVTALLLPLALLLHAARPEVQLQQSGPGLVKPSQTLSLTCAISGDSVSSNSAAWNWIRQSPSRGLEWLGRTYYRSKWYSDYAVSVKSRITINPDTSKNQFSLQLNSVTPEDTAVYYCARDPYDFWSGYPDAFDIWGQGTMVTVSSGGGGSGGGGSGGGGSQSALTQPASVSGSPGQSITISCTGTSSDVGGYNYVSWYQQHPGKAPKVIISEVNNRPSGVSHRFSGSKSGNTASLTISGLQAEDEADYFCSSYTSGRTLYVFGTGSKVTVLGTREQKLISEEDGSGIQNPDPAVYQLRDSKSSDKSVCLFTDFDSQTNVSQSKDSDVYITDKCVLDMRSMDFKSNSAVAWSNKSDFACANAFNNSIIPEDTFFPSSDVPCDVKLVEKSFETDTNLNFQNLSVIGFRILLLKVAGFNLLMTLRLWSSRAKRSGSGVKQTLNFDLLKLAGDVESNPGPSRGHMTEYKPTVRLATRDDVPRAVRTLAAAFADYPATRHTVDPDRHIERVTELQELFLTRVGLDIGKVWVADDGAAVAVWTTPESVEAGAVFAEIGPRMAELSGSRLAAQQQMEGLLAPHRPKEPAWFLATVGVSPDHQGKGLGSAVVLPGVEAAERAGVPAFLETSAPRNLPFYERLGFTVTADVEVPEGPRTWCMTRKPGA | RAJI (+/−)
2 | 062717-O02 (protein) MALPVTALLLPLALLLHAARPLEGKPIPNPLLGLDSTGSGEDLKNVFPPEVAVFEPSKAEIAHTQKATLVCLATGFYPDHVELSWWVNGKEVHSGVCTDPQPLKEQPALNDSRYCLSSRLRVSATFWQNPRNHFRCQVQFYGLSENDEWTQDRAKPVTQIVSAEAWGRADCGITSASYHQGVLSATILYEILLGKATLYAVLVSALVLMAMVKRKDSRGRAKRSGSGATNFSLLKQAGDVEENPGPTSMALPVTALLLPLALLLHAARPEVQLQQSGPGLVKPSQTLSLTCAISGDSVLSNSDTWNWIRQSPSRGLEWLGRTYHRSTWYDDYASSVRGRVSINVDTSKNQYSLQLNAVTPEDTGVYYCARDRLQDGNSWSDAFDVWGQGTMVTVSSGGGGSGGGGSGGGGSQSALTQPASVSGSPGQSITISCTGTSSDVGGYNYVSWYQQHPGKAPKLMIYDVSNRPSGVSNRFSGSKSGNTASLTISGLQAEDEADYYCSSYTSSSTLVYVFGTGTKVTVLTREQKLISEEDGSGIQNPDPAVYQLRDSKSSDKSVCLFTDFDSQTNVSQSKDSDVYITDKCVLDMRSMDFKSNSAVAWSNKSDFACANAFNNSIIPEDTFFPSSDVPCDVKLVEKSFETDTNLNFQNLSVIGFRILLLKVAGFNLLMTLRLWSSRAKRSGSGVKQTLNFDLLKLAGDVESNPGPSRGHMTEYKPTVRLATRDDVPRAVRTLAAAFADYPATRHTVDPDRHIERVTELQELFLTRVGLDIGKVWVADDGAAVAVWTTPESVEAGAVFAEIGPRMAELSGSRLAAQQQMEGLLAPHRPKEPAWFLATVGVSPDHQGKGLGSAVVLPGVEAAERAGVPAFLETSAPRNLPFYERLGFTVTADVEVPEGPRTWCMTRKPGA | RAJI (+/−)
